From the supplement of paper PMC10065799, “High-throughput profiling of sequence recognition by tyrosine kinases and SH2 domains using bacterial peptide display” (eLife, 2023)
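Note: 11-residue human phosphosite peptides and single-mutation variants displayed on the E. coli surface, counted by deep sequencing, each peptide's frequency after selection divided by its frequency in the unselected input library; frequency after pTyr selection over input frequency; kinase dosed for 20-30% of maximal phosphorylation in three min.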

The sequences below were run against Hck (UniProt P08631) (assay: phosphorylation enrichment, bacterial display (enrichment ratio); higher = better substrate or ligand; peptides without Tyr show the background).
Hck, sequence (P08631 whole entry, looked up): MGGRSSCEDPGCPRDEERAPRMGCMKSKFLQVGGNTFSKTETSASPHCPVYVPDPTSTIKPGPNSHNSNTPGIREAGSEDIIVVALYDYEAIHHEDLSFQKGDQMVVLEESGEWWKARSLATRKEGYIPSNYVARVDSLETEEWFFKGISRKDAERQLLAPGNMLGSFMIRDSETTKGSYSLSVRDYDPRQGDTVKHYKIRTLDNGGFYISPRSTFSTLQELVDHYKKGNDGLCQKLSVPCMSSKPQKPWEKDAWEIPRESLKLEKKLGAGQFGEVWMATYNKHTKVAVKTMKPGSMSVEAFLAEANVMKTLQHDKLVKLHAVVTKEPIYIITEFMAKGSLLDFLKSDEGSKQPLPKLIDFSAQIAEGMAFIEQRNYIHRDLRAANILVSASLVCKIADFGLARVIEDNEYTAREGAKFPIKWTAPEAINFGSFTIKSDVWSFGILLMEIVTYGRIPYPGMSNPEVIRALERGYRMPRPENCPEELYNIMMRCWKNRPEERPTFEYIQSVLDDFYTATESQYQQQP
HFVDEYDQTIE [KRAS_Y32_P34Q] was tested, and the phosphorylation enrichment was 0.835.
With TGGLEYIVPLM [CLCN4_Y548] the phosphorylation enrichment was 0.42.
ECKLLYSRKEG [PTPN11_Y263] showed a phosphorylation enrichment of 0.564.
GLQDEYDFKCK [STAT1_Y170_D165G] gave a phosphorylation enrichment of 0.597.
EGDGVYTLNNE [HP_Y125] showed a phosphorylation enrichment of 3.07.
RHPLEYLRQYP [NARS2_Y138] showed a phosphorylation enrichment of 0.561.
With INNKMYDPKMN [ENPP1_Y280_D276N] the phosphorylation enrichment was 0.436.
DGMADCSDPSF [CDC5L_Y459_Y459C_YF] gave a phosphorylation enrichment of 0.6.
In the case of FTRNYYVRAVL [CYBA_Y88], the phosphorylation enrichment is reported as 0.566.
Sequence IHRWVYPLTPE [EIF2B5_Y319_R315H] has a phosphorylation enrichment of 0.487.
With QLAPQYTYAQG [FLNA_Y1761] the phosphorylation enrichment was 0.624.
For NLAAQYTTVGR [SGSH_Y240_D235N], the phosphorylation enrichment was 0.568.
For INMKKYCKKDY [NTN1_Y490], the phosphorylation enrichment was 0.461.
Work on QLAPQYTFTQG [FLNA_Y1761_A1764T_YF] yielded a phosphorylation enrichment of 0.748.
For FADIAYNFRHA [PAH_Y166_G171A_YF], the phosphorylation enrichment was 0.432.
Work on LTTEVYFPSIK [C5orf64_Y60_A57T] yielded a phosphorylation enrichment of 0.541.
With LANNEYFFQVC the phosphorylation enrichment was 0.932.
For ADGLEYSRTGL [MMUT_Y287], the phosphorylation enrichment was 0.776.
Sequence RHPREYQDLLN [DES_Y388_L385P] has a phosphorylation enrichment of 0.463.
CVVVPYEPPEV [TP53_Y220_S215C] gave a phosphorylation enrichment of 0.599.
Work on NKFVAYIESQG [KDM4B_Y34_YF] yielded a phosphorylation enrichment of 0.494.
In the case of KRTFEYEAEKN [DENND2B_Y396_D399E], the phosphorylation enrichment is reported as 0.463.
With SELVRYDARVH [MET_Y971] the phosphorylation enrichment was 0.581.
FVPSFYHAFSG [ACTN4_Y265_S262P_YF] gave a phosphorylation enrichment of 1.48.
Sequence GKGGSYSQAAS [HLA-B_Y344_C349S] has a phosphorylation enrichment of 0.462.
QKMADYSNKLH [PDPR_Y104_Y109H] was tested, and the phosphorylation enrichment was 0.586.
Work on KDHPDYKYQAR [SOX10_Y171_P175A] yielded a phosphorylation enrichment of 0.496.
With IQKWEYVPLGT [FAH_Y244_P249T] the phosphorylation enrichment was 0.428.
Sequence DPAFGYEDFTR [SESN2_Y323_T320A] has a phosphorylation enrichment of 0.594.
CCNHPYRINGA [CHD7_Y1256_L1257R] gave a phosphorylation enrichment of 0.464.
In the case of EILLSYLRTGF [TGM1_Y365_YF], the phosphorylation enrichment is reported as 0.41.
For DLKFHYDNTAG [KDR_Y1214_P1210L], the phosphorylation enrichment was 0.462.
With AVVEPYNSILT [TUBA1A_Y185] the phosphorylation enrichment was 0.43.

What follows are sequences tested against Jak2 (UniProt O60674) in the same assay as above.
Jak2, sequence (O60674 whole entry, looked up): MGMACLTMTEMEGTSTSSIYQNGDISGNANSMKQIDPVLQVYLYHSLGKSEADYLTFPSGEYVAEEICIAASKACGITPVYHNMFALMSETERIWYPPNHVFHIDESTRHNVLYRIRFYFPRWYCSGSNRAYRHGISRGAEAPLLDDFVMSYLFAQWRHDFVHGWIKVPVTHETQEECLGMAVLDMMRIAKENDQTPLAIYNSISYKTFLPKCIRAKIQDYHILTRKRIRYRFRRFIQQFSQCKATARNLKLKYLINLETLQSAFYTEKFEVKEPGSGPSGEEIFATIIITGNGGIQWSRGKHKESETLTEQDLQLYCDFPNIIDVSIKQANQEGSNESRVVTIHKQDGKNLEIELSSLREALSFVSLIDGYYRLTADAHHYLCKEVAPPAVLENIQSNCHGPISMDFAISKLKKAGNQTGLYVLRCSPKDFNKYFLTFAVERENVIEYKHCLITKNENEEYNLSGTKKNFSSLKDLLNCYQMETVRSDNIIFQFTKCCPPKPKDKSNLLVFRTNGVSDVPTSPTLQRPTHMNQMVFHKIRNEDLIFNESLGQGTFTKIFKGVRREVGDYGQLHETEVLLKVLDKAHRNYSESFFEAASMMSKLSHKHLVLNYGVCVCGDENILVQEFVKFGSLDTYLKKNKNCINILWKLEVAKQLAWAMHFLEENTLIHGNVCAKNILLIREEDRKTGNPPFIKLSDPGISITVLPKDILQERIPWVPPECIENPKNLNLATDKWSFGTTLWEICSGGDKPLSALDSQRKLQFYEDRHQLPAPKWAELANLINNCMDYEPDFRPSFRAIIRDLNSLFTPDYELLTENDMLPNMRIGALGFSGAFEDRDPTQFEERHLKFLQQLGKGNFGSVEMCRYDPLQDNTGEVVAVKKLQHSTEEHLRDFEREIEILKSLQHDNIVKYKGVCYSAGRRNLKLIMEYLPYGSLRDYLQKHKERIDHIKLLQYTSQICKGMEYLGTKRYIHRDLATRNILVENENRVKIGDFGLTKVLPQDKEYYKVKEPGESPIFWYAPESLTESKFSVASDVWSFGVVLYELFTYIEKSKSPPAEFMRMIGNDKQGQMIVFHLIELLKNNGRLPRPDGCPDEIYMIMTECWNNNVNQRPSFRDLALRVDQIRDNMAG
Sequence HFVDEYDQTIE [KRAS_Y32_P34Q] has a phosphorylation enrichment of 2.14.
With TGGLEYIVPLM [CLCN4_Y548] the phosphorylation enrichment was 2.32.
ECKLLYSRKEG [PTPN11_Y263] was tested, and the phosphorylation enrichment was 0.647.
GLQDEYDFKCK [STAT1_Y170_D165G] showed a phosphorylation enrichment of 1.18.
In the case of EGDGVYTLNNE [HP_Y125], the phosphorylation enrichment is reported as 0.934.
In the case of RHPLEYLRQYP [NARS2_Y138], the phosphorylation enrichment is reported as 1.22.
For INNKMYDPKMN [ENPP1_Y280_D276N], the phosphorylation enrichment was 0.556.
With DGMADCSDPSF [CDC5L_Y459_Y459C_YF] the phosphorylation enrichment was 1.01.
In the case of FTRNYYVRAVL [CYBA_Y88], the phosphorylation enrichment is reported as 1.06.
With IHRWVYPLTPE [EIF2B5_Y319_R315H] the phosphorylation enrichment was 0.885.
For QLAPQYTYAQG [FLNA_Y1761], the phosphorylation enrichment was 0.696.
With NLAAQYTTVGR [SGSH_Y240_D235N] the phosphorylation enrichment was 0.414.
INMKKYCKKDY [NTN1_Y490] was tested, and the phosphorylation enrichment was 0.698.
QLAPQYTFTQG [FLNA_Y1761_A1764T_YF] gave a phosphorylation enrichment of 1.21.
Work on FADIAYNFRHA [PAH_Y166_G171A_YF] yielded a phosphorylation enrichment of 0.524.
Work on LTTEVYFPSIK [C5orf64_Y60_A57T] yielded a phosphorylation enrichment of 0.703.
With LANNEYFFQVC the phosphorylation enrichment was 2.29.
Sequence ADGLEYSRTGL [MMUT_Y287] has a phosphorylation enrichment of 0.855.
Sequence RHPREYQDLLN [DES_Y388_L385P] has a phosphorylation enrichment of 0.785.
Work on CVVVPYEPPEV [TP53_Y220_S215C] yielded a phosphorylation enrichment of 1.38.
Work on NKFVAYIESQG [KDM4B_Y34_YF] yielded a phosphorylation enrichment of 0.836.
For KRTFEYEAEKN [DENND2B_Y396_D399E], the phosphorylation enrichment was 0.798.
In the case of SELVRYDARVH [MET_Y971], the phosphorylation enrichment is reported as 0.687.
Sequence FVPSFYHAFSG [ACTN4_Y265_S262P_YF] has a phosphorylation enrichment of 0.823.
GKGGSYSQAAS [HLA-B_Y344_C349S] gave a phosphorylation enrichment of 0.651.
QKMADYSNKLH [PDPR_Y104_Y109H] was tested, and the phosphorylation enrichment was 0.974.
Work on KDHPDYKYQAR [SOX10_Y171_P175A] yielded a phosphorylation enrichment of 0.58.
In the case of IQKWEYVPLGT [FAH_Y244_P249T], the phosphorylation enrichment is reported as 1.23.
For DPAFGYEDFTR [SESN2_Y323_T320A], the phosphorylation enrichment was 0.987.
For CCNHPYRINGA [CHD7_Y1256_L1257R], the phosphorylation enrichment was 0.396.
EILLSYLRTGF [TGM1_Y365_YF] gave a phosphorylation enrichment of 0.981.
Sequence DLKFHYDNTAG [KDR_Y1214_P1210L] has a phosphorylation enrichment of 0.889.
With AVVEPYNSILT [TUBA1A_Y185] the phosphorylation enrichment was 0.802.

These sequences were tested against MERTK (UniProt Q12866) in the same assay as above.
MERTK, sequence (Q12866 whole entry, looked up): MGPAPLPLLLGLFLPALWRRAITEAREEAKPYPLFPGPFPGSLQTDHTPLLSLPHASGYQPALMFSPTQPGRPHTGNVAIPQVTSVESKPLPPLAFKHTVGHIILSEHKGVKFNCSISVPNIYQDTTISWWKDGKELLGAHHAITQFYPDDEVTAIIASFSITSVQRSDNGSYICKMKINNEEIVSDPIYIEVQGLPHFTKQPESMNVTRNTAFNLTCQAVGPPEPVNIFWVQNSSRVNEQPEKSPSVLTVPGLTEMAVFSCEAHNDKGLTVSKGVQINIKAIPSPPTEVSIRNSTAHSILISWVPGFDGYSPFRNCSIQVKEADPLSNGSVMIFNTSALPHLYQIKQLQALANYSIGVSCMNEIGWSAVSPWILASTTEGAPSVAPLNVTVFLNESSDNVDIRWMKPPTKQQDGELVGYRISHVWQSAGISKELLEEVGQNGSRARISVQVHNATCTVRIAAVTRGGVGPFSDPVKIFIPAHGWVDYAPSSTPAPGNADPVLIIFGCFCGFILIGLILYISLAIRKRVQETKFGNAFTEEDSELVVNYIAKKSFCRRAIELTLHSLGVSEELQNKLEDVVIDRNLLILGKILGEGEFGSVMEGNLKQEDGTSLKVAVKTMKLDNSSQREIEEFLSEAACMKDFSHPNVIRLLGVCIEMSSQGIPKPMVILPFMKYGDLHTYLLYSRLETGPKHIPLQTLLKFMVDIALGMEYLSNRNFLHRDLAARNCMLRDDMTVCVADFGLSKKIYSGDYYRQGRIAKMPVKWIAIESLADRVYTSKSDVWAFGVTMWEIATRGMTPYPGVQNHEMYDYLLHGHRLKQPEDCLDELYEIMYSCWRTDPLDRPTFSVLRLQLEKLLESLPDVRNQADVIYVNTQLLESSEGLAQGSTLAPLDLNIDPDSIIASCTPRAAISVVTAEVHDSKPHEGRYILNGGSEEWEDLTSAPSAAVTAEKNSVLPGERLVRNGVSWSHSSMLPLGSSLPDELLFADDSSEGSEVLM
For HFVDEYDQTIE [KRAS_Y32_P34Q], the phosphorylation enrichment was 0.804.
Work on TGGLEYIVPLM [CLCN4_Y548] yielded a phosphorylation enrichment of 0.364.
In the case of ECKLLYSRKEG [PTPN11_Y263], the phosphorylation enrichment is reported as 0.483.
GLQDEYDFKCK [STAT1_Y170_D165G] showed a phosphorylation enrichment of 0.453.
Work on EGDGVYTLNNE [HP_Y125] yielded a phosphorylation enrichment of 0.509.
RHPLEYLRQYP [NARS2_Y138] gave a phosphorylation enrichment of 0.454.
With INNKMYDPKMN [ENPP1_Y280_D276N] the phosphorylation enrichment was 0.354.
Work on DGMADCSDPSF [CDC5L_Y459_Y459C_YF] yielded a phosphorylation enrichment of 0.525.
FTRNYYVRAVL [CYBA_Y88] showed a phosphorylation enrichment of 0.506.
IHRWVYPLTPE [EIF2B5_Y319_R315H] was tested, and the phosphorylation enrichment was 0.487.
QLAPQYTYAQG [FLNA_Y1761] gave a phosphorylation enrichment of 0.65.
With NLAAQYTTVGR [SGSH_Y240_D235N] the phosphorylation enrichment was 0.438.
With INMKKYCKKDY [NTN1_Y490] the phosphorylation enrichment was 0.402.
With QLAPQYTFTQG [FLNA_Y1761_A1764T_YF] the phosphorylation enrichment was 1.1.
In the case of FADIAYNFRHA [PAH_Y166_G171A_YF], the phosphorylation enrichment is reported as 0.388.
Work on LTTEVYFPSIK [C5orf64_Y60_A57T] yielded a phosphorylation enrichment of 0.562.
LANNEYFFQVC was tested, and the phosphorylation enrichment was 0.933.
For ADGLEYSRTGL [MMUT_Y287], the phosphorylation enrichment was 0.592.
Work on RHPREYQDLLN [DES_Y388_L385P] yielded a phosphorylation enrichment of 0.41.
Sequence CVVVPYEPPEV [TP53_Y220_S215C] has a phosphorylation enrichment of 0.462.
With NKFVAYIESQG [KDM4B_Y34_YF] the phosphorylation enrichment was 0.459.
In the case of KRTFEYEAEKN [DENND2B_Y396_D399E], the phosphorylation enrichment is reported as 0.505.
In the case of SELVRYDARVH [MET_Y971], the phosphorylation enrichment is reported as 0.443.
For FVPSFYHAFSG [ACTN4_Y265_S262P_YF], the phosphorylation enrichment was 7.34.
In the case of GKGGSYSQAAS [HLA-B_Y344_C349S], the phosphorylation enrichment is reported as 0.493.
Sequence QKMADYSNKLH [PDPR_Y104_Y109H] has a phosphorylation enrichment of 0.429.
For KDHPDYKYQAR [SOX10_Y171_P175A], the phosphorylation enrichment was 0.39.
IQKWEYVPLGT [FAH_Y244_P249T] was tested, and the phosphorylation enrichment was 0.328.
With DPAFGYEDFTR [SESN2_Y323_T320A] the phosphorylation enrichment was 0.445.
Work on CCNHPYRINGA [CHD7_Y1256_L1257R] yielded a phosphorylation enrichment of 0.404.
Sequence EILLSYLRTGF [TGM1_Y365_YF] has a phosphorylation enrichment of 0.387.
DLKFHYDNTAG [KDR_Y1214_P1210L] gave a phosphorylation enrichment of 0.415.
AVVEPYNSILT [TUBA1A_Y185] gave a phosphorylation enrichment of 0.415.

Each sequence was assayed on c-Abl (mouse) in the same assay as above.
HFVDEYDQTIE [KRAS_Y32_P34Q] was tested, and the phosphorylation enrichment was 1.01.
Work on TGGLEYIVPLM [CLCN4_Y548] yielded a phosphorylation enrichment of 0.937.
ECKLLYSRKEG [PTPN11_Y263] was tested, and the phosphorylation enrichment was 0.77.
For GLQDEYDFKCK [STAT1_Y170_D165G], the phosphorylation enrichment was 0.831.
EGDGVYTLNNE [HP_Y125] showed a phosphorylation enrichment of 0.817.
Sequence RHPLEYLRQYP [NARS2_Y138] has a phosphorylation enrichment of 1.37.
INNKMYDPKMN [ENPP1_Y280_D276N] showed a phosphorylation enrichment of 0.473.
DGMADCSDPSF [CDC5L_Y459_Y459C_YF] showed a phosphorylation enrichment of 1.
FTRNYYVRAVL [CYBA_Y88] showed a phosphorylation enrichment of 0.976.
IHRWVYPLTPE [EIF2B5_Y319_R315H] showed a phosphorylation enrichment of 0.621.
In the case of QLAPQYTYAQG [FLNA_Y1761], the phosphorylation enrichment is reported as 0.61.
In the case of NLAAQYTTVGR [SGSH_Y240_D235N], the phosphorylation enrichment is reported as 0.416.
Work on INMKKYCKKDY [NTN1_Y490] yielded a phosphorylation enrichment of 0.824.
Sequence QLAPQYTFTQG [FLNA_Y1761_A1764T_YF] has a phosphorylation enrichment of 1.49.
FADIAYNFRHA [PAH_Y166_G171A_YF] showed a phosphorylation enrichment of 0.506.
LTTEVYFPSIK [C5orf64_Y60_A57T] gave a phosphorylation enrichment of 0.766.
Sequence LANNEYFFQVC has a phosphorylation enrichment of 1.74.
Sequence ADGLEYSRTGL [MMUT_Y287] has a phosphorylation enrichment of 0.878.
RHPREYQDLLN [DES_Y388_L385P] was tested, and the phosphorylation enrichment was 0.487.
Sequence CVVVPYEPPEV [TP53_Y220_S215C] has a phosphorylation enrichment of 1.01.
Work on NKFVAYIESQG [KDM4B_Y34_YF] yielded a phosphorylation enrichment of 0.611.
KRTFEYEAEKN [DENND2B_Y396_D399E] was tested, and the phosphorylation enrichment was 0.675.
SELVRYDARVH [MET_Y971] was tested, and the phosphorylation enrichment was 0.523.
FVPSFYHAFSG [ACTN4_Y265_S262P_YF] was tested, and the phosphorylation enrichment was 0.835.
For GKGGSYSQAAS [HLA-B_Y344_C349S], the phosphorylation enrichment was 0.622.
In the case of QKMADYSNKLH [PDPR_Y104_Y109H], the phosphorylation enrichment is reported as 0.714.
Sequence KDHPDYKYQAR [SOX10_Y171_P175A] has a phosphorylation enrichment of 0.609.
IQKWEYVPLGT [FAH_Y244_P249T] showed a phosphorylation enrichment of 0.564.
DPAFGYEDFTR [SESN2_Y323_T320A] showed a phosphorylation enrichment of 0.764.
Sequence CCNHPYRINGA [CHD7_Y1256_L1257R] has a phosphorylation enrichment of 0.434.
Work on EILLSYLRTGF [TGM1_Y365_YF] yielded a phosphorylation enrichment of 0.492.
Work on DLKFHYDNTAG [KDR_Y1214_P1210L] yielded a phosphorylation enrichment of 0.663.
For AVVEPYNSILT [TUBA1A_Y185], the phosphorylation enrichment was 0.534.
